# Assay results published in patent publication US20250271431A1 (NEW ERA MABS, published 2025).
# B1: hcAb A7.2 (clone A7_2), camelid full length IgG2 heavy chain only antibody (antibody, V domains shown)
# VH: DVQLQESGGGLVQPGKSLKLSCAAFGFAFSSTWMHWVRQAPGKGPEWVAFINPGGEKTMHADSVKGRFTISRDDAKNTLYLQMNNLKPEDTAVYYCAIERKDAFSWGQGTQVTVSS
# Target: SARS-CoV-2 Spike protein (D614G, furin-cleavage site destroyed, FKO) on SARS-CoV-2 virus-like particles (VLPs) (SARS-CoV-2, UniProt P0DTC2 14-1273)
binder,measurement,value
B1,EC50 (read off the curve),~400 µg/mL
